{
  "source": "patent US20260226440",
  "experiment_in_all_cases": "cell_activity",
  "key": {"[1]": {"tested_on": "Type V nuclease-mutMMLV RT fusion", "conditions": "HEK293T"}, "[2]": {"tested_on": "T1, Type V CRISPR nuclease (8218)", "T1 sequence": "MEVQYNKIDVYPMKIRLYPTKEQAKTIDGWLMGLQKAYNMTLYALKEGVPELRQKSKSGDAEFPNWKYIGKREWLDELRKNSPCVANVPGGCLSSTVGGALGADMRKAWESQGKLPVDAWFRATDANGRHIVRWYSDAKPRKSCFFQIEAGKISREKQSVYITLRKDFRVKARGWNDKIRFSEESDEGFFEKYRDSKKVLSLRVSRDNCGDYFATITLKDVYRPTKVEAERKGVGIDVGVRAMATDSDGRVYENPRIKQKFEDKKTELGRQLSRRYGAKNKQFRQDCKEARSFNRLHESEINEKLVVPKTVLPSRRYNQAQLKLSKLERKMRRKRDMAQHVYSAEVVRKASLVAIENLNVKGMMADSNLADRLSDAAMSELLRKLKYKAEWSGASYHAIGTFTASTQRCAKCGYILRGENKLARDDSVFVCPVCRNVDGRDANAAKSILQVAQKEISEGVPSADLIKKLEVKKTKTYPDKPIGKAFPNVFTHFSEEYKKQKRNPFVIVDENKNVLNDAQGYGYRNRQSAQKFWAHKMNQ", "conditions": "indels in HEK293T; PAM 5'-TTTC-3'; reference"}, "[3]": {"tested_on": "nuclease-RT fusion E328R E328R (numbering of SEQ ID NO: 1)", "conditions": "HEK293T; PAM TTTC; loss of activity; average ratio, EMX1 and VEGFA tested; RT editing ratio 0.173"}, "[4]": {"molecular_target": "nuclease-RT fusion D125G D125G (numbering of SEQ ID NO: 1) (UniProt P03355)", "conditions": "HEK293T; PAM TTTC; average ratio, EMX1 and VEGFA tested; RT editing ratio 1.436"}, "[5]": {"molecular_target": "nuclease-RT fusion S205G S205G (numbering of SEQ ID NO: 1) (UniProt P03355)", "conditions": "HEK293T; PAM TTTC; average ratio, EMX1 and VEGFA tested; RT editing ratio 1.654"}, "[6]": {"molecular_target": "nuclease-RT fusion D137G D137G (numbering of SEQ ID NO: 1) (UniProt P03355)", "conditions": "HEK293T; PAM TTTC; average ratio, EMX1 and VEGFA tested; RT editing ratio 1.665"}, "[7]": {"tested_on": "nuclease-RT fusion A138R A138R (numbering of SEQ ID NO: 1)", "conditions": "HEK293T; PAM TTTC; average ratio, EMX1 and VEGFA tested; RT editing ratio 1.266"}, "[8]": {"tested_on": "nuclease-RT fusion R250G R250G (numbering of SEQ ID NO: 1)", "conditions": "HEK293T; PAM TTTC; loss of activity; average ratio, EMX1 and VEGFA tested; RT editing ratio 0.022"}, "[9]": {"molecular_target": "nuclease-RT fusion N127R N127R (numbering of SEQ ID NO: 1) (UniProt P03355)", "conditions": "HEK293T; PAM TTTC; average ratio, EMX1 and VEGFA tested; RT editing ratio 1.507"}, "[10]": {"molecular_target": "nuclease-RT fusion S136G S136G (numbering of SEQ ID NO: 1) (UniProt P03355)", "conditions": "HEK293T; PAM TTTC; average ratio, EMX1 and VEGFA tested; RT editing ratio 1.907"}, "[11]": {"tested_on": "nuclease-RT fusion D137R D137R (numbering of SEQ ID NO: 1)", "conditions": "HEK293T; PAM TTTC; average ratio, EMX1 and VEGFA tested; RT editing ratio 1.392"}, "[12]": {"molecular_target": "nuclease-RT fusion D237G D237G (numbering of SEQ ID NO: 1) (UniProt P03355)", "conditions": "HEK293T; PAM TTTC; loss of activity; average ratio, EMX1 and VEGFA tested; RT editing ratio 0.038"}},
  "data": [
    {"sequence": "CACCGUGUCAGGCCUGCUAGUCAGCCACAGUUUGGGGAAAGCUGUGCAGCCUGUAACCCCCCCAGGAGAAGCUGGGAAAAACCGUCAUCAACAUUGCCUUUCUGUUGCCCAGUAAACUUAUCAUACGGAGCCAGGCUAUAUAAUUAGCUACUUCUCCGUGAGGUGCAGCCACGAGGUGCGAAAGUACGCCGCAAUGUGCGGAAUUCGCACGAAAGUUGGCGGAUUUCUUCGGAAAUCGAGCCAAUAAGCAUAUCCAUAUUAUCUGCGGAUGGAUGUGCACUGCAAGUGUUGCCCUCAUAACUUAUCUUUUUUGCG / TGTTGCCCTCATAACTTATC / GATAAGTTATGAGGGCAACA [sgRNA_C16_xrRNA_EMX1_TTTC editing template RNA ; EMX1 target]", "values": [
      {"measurement": "activity", "setting": "[1]; PAM TTTC, precise editing 1.678%", "result": 10.7, "unit": "% indel"}
    ]},
    {"sequence": "GUGAGGUGCAGCCACGAGGUGCGAAUAGGAAGUACGCAGCAAUGUGCUGAAUCGUUCGCACGAAAAUUGGCAUUUUUGAAAACCAAAGCCAAUAAUCAUAUCCAUAAAUAUGUGUGGUUAUGAACUGCAAGUGUUGCCCUCAUAACUUAUC / TGTTGCCCTCATAACTTATC / GATAAGTTATGAGGGCAACA [parent sgRNA EMX1 ; EMX1 target]", "values": [
      {"measurement": "activity (relative to parent)", "setting": "[2]", "result": 1}
    ]},
    {"sequence": "CACCGUGUCAGGCCUGCUAGUCAGCCACAGUUUGGGGAAAGCUGUGCAGCCUGUAACCCCCCCAGGAGAAGCUGGGAAAAAUGAGGAUGUAGUCACGGAUUCAUUAUCAGGUUCUGGCUGCAGGGUGCCUGAUCUGUGCCAGGGUUAAGCAUGCUGGUGAGGUGCAGCCACGAGGUGCGAAAGUACGCCGCAAUGUGCGGAAUUCGCACGAAAGUUGGCGGAUUUCUUCGGAAAUCGAGCCAAUAACCAUCUCCAUAAAUAUGUGUGGUGAUGGACUGCAAGAUUAUCAGCAAGUGGCUGCAUUUUUUGCG / ATTATCAGCAAGTGGCTGCA / TGCAGCCACTTGCTGATAAT", "values": [
      {"measurement": "activity", "setting": "[1]; PAM ATTC (inferred from RTT), precise editing 1.993%", "result": 7.64, "unit": "% indel"}
    ]},
    {"sequence": "UGUCAGGCCUGCUAGUCAGCCACAGUUUGGGGAAAGCUGUGCAGCCUGUAACCCCCCCAGGAGAAGCUGGGAAAAACCGUCAUCAACAUUGCCUUUCUGUUGCCCAGUAAACUUAUCAUACGGAGCCAGGCUAUAUAAUUAGCUACUUCUCCGUGAGGUGCAGCCACGAGGUGCGAAAGUACGCAGCAAUGUGCUGAAUUCGCACGAAAGUUGGCGGAUUUCUUCGGAAAUCGAGCCAAUAAUCAUAUCCAUAUUAUCUGCGGAUGGAUGUGAACUGCAAGUGUUGCCCUCAUAACUUAUC / TGTTGCCCTCATAACTTATC / GATAAGTTATGAGGGCAACA [Table 7 editing template RNA 1 (EMX1) ; EMX1 target]", "values": [
      {"measurement": "indel ratio to WT (indel ratio to WT)", "setting": "[3]", "result": 0.0299},
      {"measurement": "indel ratio to WT (indel ratio to WT)", "setting": "[4]", "result": 2.83},
      {"measurement": "indel ratio to WT (indel ratio to WT)", "setting": "[5]", "result": 2.53},
      {"measurement": "indel ratio to WT (indel ratio to WT)", "setting": "[6]", "result": 2.8},
      {"measurement": "indel ratio to WT (indel ratio to WT)", "setting": "[7]", "result": 2.77},
      {"measurement": "indel ratio to WT (indel ratio to WT)", "setting": "[8]", "result": 0.00013},
      {"measurement": "indel ratio to WT (indel ratio to WT)", "setting": "[9]", "result": 2.7},
      {"measurement": "indel ratio to WT (indel ratio to WT)", "setting": "[10]", "result": 3.18},
      {"measurement": "indel ratio to WT (indel ratio to WT)", "setting": "[11]", "result": 2.13},
      {"measurement": "indel ratio to WT (indel ratio to WT)", "setting": "[12]", "result": 0.00343}
    ]},
    {"sequence": "CACCGCCGUCAUCAACAUUGCCUUUCUGUUGCCCAGUAAACUUAUCAUACGGAGCCAGGCUAUAUAAUUAGCUACUUCUCGUGAGGUGCAGCCACGAGGUGCGAAAGUACGCCGCAAUGUGCGGAAUUCGCACGAAAGUUGGCGGAUUUCUUCGGAAAUCGAGCCAAUAACCAUCUCCAUAAAUAUGUGUGGUGAUGGACUGCAAGUGUUGCCCUCAUAACUUAUCUUUUUUGCG / TGTTGCCCTCATAACTTATC / GATAAGTTATGAGGGCAACA", "values": [
      {"measurement": "activity", "setting": "[1]; PAM TTTC, precise editing 0.249%", "result": 14.6, "unit": "% indel"}
    ]}
  ]
}
